Experimental data as given in patent US20030229203.

Molecular target: T1, RANTES(1-68), P13501
T1 chain: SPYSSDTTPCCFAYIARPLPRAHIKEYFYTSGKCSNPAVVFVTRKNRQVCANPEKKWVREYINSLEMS

B1: enzymatically deficient (E-) recombinant soluble human CD26 (sCD26) (protein)
chain: NKGTDDATADSRKTYTLTDYLKNTYRLKLYSLRWISDHEYLYKQENNILVFNAEYGNSSVFLENSTFDEFGHSINDYSISPDGQFILLEYNYVKQWRHSYTASYDIYDLNKRQLITEERIPNNTQWVTWSPVGHKLAYVWNNDIYVKIEPNLPSYRITWTGKEDIIYNGITDWVYEEEVFSAYSALWWSPNGTFLAYAQFNDTEVPLIEYSFYSDESLQYPKTVRVPYPKAGAVNPTVKFFVVNTDSLSSVTNATSIQITAPASMLIGDHYLCDVTWATQERISLQWLRRIQNYSVMDICDYDESSGRWNCLVARQHIEMSTTGWVGRFRPSEPHFTLDGNSFYKIISNEEGYRHICYFQIDKKDCTFITKGTWEVIGIEALTSDYLYYISNEYKGMPGGRNLYKIQLSDYTKVTCLSCELNPERCQYYSVSFSKEAKYYQLRCSGPGLPLYTLHSSVNDKGLRVLEDNSALDKMLQNVQMPSKKLDFIILNETKFWYQMILPPHFDKSKKYPLLLDVYAGPCSQKADTVFRLNWATYLASTENIIVASFDGRGSGYQGDKIMHAINRRLGTFEVEDQIEAARQFSKMGFVDNKRIAIWGWAYGGYVTSMVLGSGSGVFKCGIAVAPVSRWEYYDSVYTERYMGLPTPEDNLDHYRNSTVMSRAENFKQVEYLLIHGTADDNVHFQQSAQISKALVDVGVDFQAMWYTDEDHGIASSTAHQHIYTHMSHFIKQCFSLP
- hydrolysis of rhRANTES by sCD26 (ES-MS of cleavage products): shortened RANTES was not generated by incubation of the chemokine with a mutant sCD26 deficient in enzyme activity
